The target in this assay is C215 antigen (human GA-733 antigen recognized by the C215 mAb) (human) (UniProt P16422). As to the kind of experiment: FACS on Colo205 cells.

Where “and” joins values, the source holds several entries; their conditions need not be identical. Equal entries are not always repeated.

Sequence of UniProt P16422 (P16422 24-314): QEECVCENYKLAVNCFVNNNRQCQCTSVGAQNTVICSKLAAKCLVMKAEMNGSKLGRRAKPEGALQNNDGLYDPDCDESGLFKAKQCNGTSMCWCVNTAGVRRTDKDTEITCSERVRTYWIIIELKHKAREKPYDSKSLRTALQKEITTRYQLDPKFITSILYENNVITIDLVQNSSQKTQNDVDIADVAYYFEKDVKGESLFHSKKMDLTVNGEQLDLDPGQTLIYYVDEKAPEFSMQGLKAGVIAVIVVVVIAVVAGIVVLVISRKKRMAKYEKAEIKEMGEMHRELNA

Take “CD80-C215Fab (from UniProt P33681 35-242)”: the fold lower binding than that of C215Fab-SEA is 50 fold lower and 100 fold lower; the fold reduction of binding compared to C215Fab-SEA turned out to be 100 fold reduced.

Source of the values: patent US20050226885A1.
